T1: mouse ECD-DDR1-Fc (mouse; human, UniProt Q03146 22-414)
T1 construct: also called mouse DDR1-ECD; wild-type mouse DDR1-ECD; not shown: human IgG1 Fc of the vector pFuse-hIgG1-Fc1 (Invivogen)
T1 sequence: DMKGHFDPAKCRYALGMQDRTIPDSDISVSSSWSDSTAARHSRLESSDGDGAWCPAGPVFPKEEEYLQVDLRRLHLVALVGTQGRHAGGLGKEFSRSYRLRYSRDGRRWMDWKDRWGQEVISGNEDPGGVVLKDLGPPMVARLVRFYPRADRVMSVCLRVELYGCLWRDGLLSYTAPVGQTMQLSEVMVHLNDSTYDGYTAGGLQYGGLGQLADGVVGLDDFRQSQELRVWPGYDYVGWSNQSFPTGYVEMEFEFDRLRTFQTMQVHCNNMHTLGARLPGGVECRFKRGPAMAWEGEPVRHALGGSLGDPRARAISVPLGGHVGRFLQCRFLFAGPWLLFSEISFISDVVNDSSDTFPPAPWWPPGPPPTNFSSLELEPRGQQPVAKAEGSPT

B1: AB2041 (antibody, V domains shown)
VH: QVQLHQSGSELAKPGASVKMSCKASGYIFTTYWIHWLKQRPGQGLEWIGFINPDTDYTEYNQKFKDKATLTADKSSNTAYVQLSSLTSEDSAVYYCARGNYGYDGLVYWGLGTLVTVSA
VL: SIVMTQTPKFLLVSAGDRVTITCKASQSVSTDVAWYQQKPGQSPKLLIYYASNRYTGVPDRFTGSGYGTDFTFTISTVQAEDLAVYFCQQDYNSYTFGGGTKLEIKR
notes: mouse hybridoma mAb
B2: AB2078 (antibody, V domains shown)
VH: EIQLQQSGPELVNPGASVKVSCKASGYSFTDYNMYWVKQSHGKSLEWIGYIDPYNGGTSYNQKFKGKATLTVDKSSSTAFMHLNSLTSEDSAVYYCAREYYGSRLWYFDVWGAGTAVTVSS
VL: DIVMTQSPSSLAMSVGQKVTMSCKSSQSLLNRNNQKNYLAWYQQKPGQSPKLLVYFASTRESGVPDRFIGSGSGTDFTLTLSSVRAEDLAENFCQQHYSTPFTFGSGTRLEIKR
notes: mouse hybridoma mAb

Assays:
mouse ECD-DDR1-Fc = molecular target: T1, mouse ECD-DDR1-Fc; assay: ELISA, coated antigen
Procedure, shortened: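 Plates coated overnight at 4° C with 2 μg/mL purified tagged DDR1 ECD protein, BSA-blocked; serially diluted murine anti-DDR1 mAbs bound 1 hr at room temperature, detected with anti-mouse IgG-HRP and TMB (OD 450). Apparent KD taken as C-parameter of 4-parameter logistic fit of OD versus antibody concentration.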

[1] = molecular target: DDR1 with a ProLink Tag (PK) in engineered U20S cells (DiscoveRx) (UniProt Q08345); assay: cell-based or functional assay
[2] = molecular target: DDR1 stably over-expressed in HCT-116 tumor cells (UniProt Q08345); assay: cell-based or functional assay
Chain of DDR1 stably over-expressed in HCT-116 tumor cells (Q08345 19-913): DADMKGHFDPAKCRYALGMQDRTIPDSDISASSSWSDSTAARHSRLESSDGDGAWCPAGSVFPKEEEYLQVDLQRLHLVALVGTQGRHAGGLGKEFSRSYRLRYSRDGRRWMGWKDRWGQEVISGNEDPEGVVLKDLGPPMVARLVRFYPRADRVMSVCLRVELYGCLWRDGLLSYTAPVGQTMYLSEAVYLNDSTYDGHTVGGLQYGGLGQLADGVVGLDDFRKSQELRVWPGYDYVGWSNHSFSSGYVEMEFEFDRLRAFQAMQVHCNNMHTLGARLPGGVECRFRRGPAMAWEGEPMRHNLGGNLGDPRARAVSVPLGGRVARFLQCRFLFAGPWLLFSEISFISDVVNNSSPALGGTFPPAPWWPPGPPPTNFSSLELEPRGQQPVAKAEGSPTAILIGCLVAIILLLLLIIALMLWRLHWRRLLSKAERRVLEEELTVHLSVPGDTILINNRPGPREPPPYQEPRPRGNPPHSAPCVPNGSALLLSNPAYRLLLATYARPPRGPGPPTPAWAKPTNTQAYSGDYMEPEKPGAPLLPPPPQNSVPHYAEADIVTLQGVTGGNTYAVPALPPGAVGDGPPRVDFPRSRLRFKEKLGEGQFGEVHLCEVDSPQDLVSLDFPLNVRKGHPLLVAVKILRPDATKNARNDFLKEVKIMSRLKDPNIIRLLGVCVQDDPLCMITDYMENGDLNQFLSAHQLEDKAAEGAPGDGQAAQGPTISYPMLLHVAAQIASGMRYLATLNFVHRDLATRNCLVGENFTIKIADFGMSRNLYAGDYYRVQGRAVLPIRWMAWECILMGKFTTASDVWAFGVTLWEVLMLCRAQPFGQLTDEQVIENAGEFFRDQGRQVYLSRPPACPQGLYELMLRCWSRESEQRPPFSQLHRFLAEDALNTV

| Binder | binding result (mouse ECD-DDR1-Fc) | Mean EC50, DDR1 Tyr513 phosphorylation assay (U20S) [1] [nM] | EC50, NFkB luciferase reporter (HCT-116, collagen II) [2] [nM] | EC90, NFkB luciferase reporter (HCT-116, collagen II) [2] [nM] |
| --- | --- | --- | --- | --- |
| B1 | no binding | – | – | – |
| B2 | – | 1.33 | 3.01 | 6.66 |

Source: US20140086913A1 (Gilead, published 2014)
